The nature of the data set: TIRF total EGFP fluorescence in adhered membrane. Conditions: glycan lost; control: wild type Kv1.1-EGFP.

B1: Kv1.1: N207Q (protein)
parent chain: MTVMSGENADEASAAPGHPQDGSYPRQADHDDHECCERVVINISGLRFETQLKTLAQFPNTLLGNPKKRMRYFDPLRNEYFFDRNRPSFDAILYYYQSGGRLRRPVNVPLDMFSEEIKFYELGEEAMEKFREDEGFIKEEERPLPEKEYQRQVWLLFEYPESSGPARVIAIVSVMVILISIVIFCLETLPELKDDKDFTGTIHRIDNTTVIYTSNIFTDPFFIVETLCIIWFSFELVVRFFACPSKTDFFKNIMNFIDIVAIIPYFITLGTEIAEQEGNQKGEQATSLAILRVIRLVRVFRIFKLSRHSKGLQILGQTLKASMRELGLLIFFLFIGVILFSSAVYFAEAEEAESHFSSIPDAFWWAVVSMTTVGYGDMYPVTIGGKIVGSLCAIAGVLTIALPVPVIVSNFNYFYHRETEGEEQAQLLHVSSPNLASDSDLSRRSSSTISKSEYMEIEEDMNNSIAHYRQANIRTGNCTATDQNCVNKSKLLTDV
For B1, the expression_or_secretion entry is reported as “no change”.

Source of the values: paper PMC4562626.
